20 sequences from the DeepSol protein solubility set can be followed below.

A short description of this data set: soluble on expression in E. coli; label from the status in PepcDB or PDB records.
For “MNMLEKVQSQLEHLSKSERKVADVILAAPGRSIHLSIAMLAQEANVSEPTVNRFCRSMNTRGFPDFKLHLAQSLANGTPYVNRNVDEDDSVEAYTGKIFESAMASLDHVRQSLDKSAVNRAVDLLTQAKKIAFFGLGSSAAVAHDAMNKFFRFNVPVIYSDDIVLQRMSCMNCSDDDVVVLISHTGRTKSLVELAQLARENDAMVIALTSAGTPLAREATLAITLDVPEDTDIYMPMVSRLAQLTVIDVLATGFTLRRGAKFRDNLKRVKEALKESRFDKELLIKSDDR”, the “soluble on expression in E. coli” value was “not soluble”.
Under “GSPGISGGGGGIPVIDGPTQILVRDVSDTVAFVEWTPPRAKVDFILLKYGLVGGEGGKTTFRLQPPLSQYSVQALRPGSRYEVSISAVRGTNESDASSTQFTTEIDAPKNLRVGSRTATSLDLEWDNSEAEAQEYKVVYSTLAGEQYHEVLVPKGIGPTTKTTLTDLVPGTEYGVGISAVMNSKQSIPATMNARTELDSPRDLMVTASSETSISLIWTKASGPIDHYRITFTPSSGISSEVTVPRDRTSYTLTDLEPGAEYIISITAERGRQQSLESTVDAFT” stands “soluble”.
On to “LTYLNYYGKEKPELVYTKIAQSSQQDAFNISKRSQKEMDKQKTWAMVLNQDGQIVQSYRLPQQLKRHYTNADMVKFSRWYLDDYPVFSYVRGQQILVFGYPKKYSLAKFNFYLNTQFIK”, for which the “soluble on expression in E. coli” value is “not soluble”.
For the sequence “MTTRRLALFDLDHTLLPLDSDYQWADFLARTGRAGDPAEARRRNDDLMERYNRGELTAEQAAEFMLGLLAAHSPVELAAWHEEFMRDVIRPSLTAQAVDVVRGHLAAGDLCALVTATNSFVTAPIARAFGVQHLIATDPEYRDGRYTGRIEGTPSFREGKVVRVNQWLAGMGLALGDFAESYFYSDSVNDVPLLEAVTRPIAANPSPGLREIAQARGWQVIDLFDHLEDAKS”, the “soluble on expression in E. coli” value is “not soluble”.
Consider “MSLRLKTILLTTMATGSFLCEPVAAMCIEPPATPDMGWFLKKKKKSNPQDSIKVKNEYEKLTGSDSVVRRGMFNVYQKKNDYYFEIPSTLLERDMLVVNKLQRVPAELNEAGVNRGTNYENQMIRFELDKSANKLLIRQSRPLPISPSEDAISQSVKDNYISPLIAGFKVEAYNNDSTSILIKVNDIYDGTETSINNVFTNINLGTSAIKNLSRILSIKSFDNNVVATSELTTRVTEGTTTIYVTVEVSSSILLLPEVPMTGRLDNPRVGYFTNPLTNFSDGQQRVNKKQFITRWRLEPRPEDRAAYLRGELVEPRKPIVFYIENSTPYRWRKYIKQGIEDWQVAFERAGFKNAIIAKDITEDMEVDMDDVNYSVLTYAASTKANAMGPSILDPRSGEILEADIMWWHNVLSMLQEWITVQTGVVRPEAREGHHHHHH”, for which the “soluble on expression in E. coli” value is on record as “not soluble”.
“MSTKLYYIYDPMCSWCWGYRPVWDLLQQHLPKSIDVEYVAGGLAPDSDSAMPIDQQQMIQNHWRTIEQKLGTKFNYDFWRENTARRSTYNACRAAIAAHKQSCQKAMIDAIQQAYYLRALNPSDVDVLVSVAKELSEQTSPTLDVAQFIVDINSSETNKELAKQVTLARELTQQGFPSLVLDVDGVIQQIPLDYSDYKTTLAYIIKKTS”: the “soluble on expression in E. coli” value is reported as “not soluble”.
Turning to “RTDTIMVLHMPRTGEPTLLSIPRDSYVNVPGWGMDKANAAFTVGGPELLTQTVEEATGLRIDHYAEIGMGGLANMVDAVGGVEMCPAEPMYDPLANLDIQAGCQEFDGAAALGYVRTRATALGDLDRVVRQREFFSALLSTATS”, the “soluble on expression in E. coli” value is “not soluble”.
For the sequence “MYVVINIDPGSTLNELMAFMTQKTITFSVTDQLSRLCDRTANGDRREVCTQTDDNCFDPPPNKKSKGYNGEDYGSPCSSATPSEPVDLGILTKTNGNSNGNHNWDTESKVLRGLIRSENGRSKSSIKEEPEEASVEDDISTEYMQNQLMQALFPKNQNGSGLANFASLEDNESIEGESGGLSDLGGFNMDSSSPASAIRYKPAYASTKRGVCRVCNREVSLITTHRRRHAITHLGFKTLKCALCYKFFSRQDLATGHFKKDHPTSEFMPFVDTMSPEDERQLVVMMELCFPEETGPRKRKDTDPKKQKVGEVEDSF”, the “soluble on expression in E. coli” value is recorded as “not soluble”.
In the case of “MVRANGAVSLRELARVVQTSEVTVRRDVRALEAEGLLDRRHGGAVLPGGFTRESGFPQKSHLATAEKTAIADLAAGLVEEGEAIVVGAGTTTQELARRLARVPGLTVVTNSLLVAQALAHANRVEVVMTGGTLRGSNYALVGSGAEQSLQGLRVSKAFLSGSGLTAERGLSTSNMLSASVDRALVQAAAEVVVLADHSKLGTDTMFQTVPTDVITRLVTDESPGHDDRAATELQALADQGVQIAVAGASGGGTANGTGASGAPGGDSVGRQQRRDVPLPGPRRQVPGAAGAGLRSATALGEQGGGAERARVADMRRRLEHHHHHH”, the “soluble on expression in E. coli” value was “not soluble”.
Turning to “MSTPRTVLVVGGGAAGNAVTILLRRAGLTVDLVEAKDDWNATAGSGITLQGNALRVLRELGVWEQVEASGFGFGSVGITTPDGTVLHVQDDLRTGGDDLPATVGMQRPRLQQILIEAVRASGASVRLGTTAEILDQDSDGVHVRLSDGSEHRYDLVVAADGLGSATRAAIGITDKPEPTGMAIWRIAAPRPAGLTRTDLAYGGPAHIAGYCPTGETTLYAYVVEANRDRAGIPPASYADEMRGLTRHYGGFWPDITEHITDPAKVNYTWFDRLLVEGSWHRGRVVLVGDAAHCCPPTLAQGAALSLEDAWVLAQMLTGSDVWDDALFQAYYERRIARVRPVVAASVQIGQWQLDGVRDADLPGLMGRTMTMLRELPLEHHHHHH”, the “soluble on expression in E. coli” value is “not soluble”.
“MAHHHHHHMATLQVRDFDPRTATHYYHCILAGIPHPVTLQSISSAIVPDSECESVQNLEKIGCQIVPYRLHVFKETLSLKFGVVDFFIHHSTSGESANPAEVHELFLQWFGSSLTRGVMSLNSWISLGQPRELHSATPFVSALMEKCSFFDAKVVSDIEKLRTFILSKVRFDNRGLNAHANNRSRVAASEDSSLQEEQTRTDCGNDPSVEWKSVGTLSASSLDSQELAWLSRQHRQFPSIAPANEREASATWELEPVRTFLQKALTPLVEVVK”: the “soluble on expression in E. coli” value is “not soluble”.
Take “MDHTVLIALLLAFCSTASAVDSEGTDFVFAFVRNANPNITNQILSATVLNQNAQDCKFTLTYRPDYRKATSPENITVTVSANSAVEVPVLSWYGWNYANENLQDDVFLTLTGFSTCPVTVLANNYDNVTGQGDTYMVLPLTWGSTSLTFSLPPAVLSTDQQYEQIYVLPTTPGVTKVSVFEIGNAASVYTFNATFGNAPAAYIGARTPDARPRTYHVMSDKNVLVVAGVTCAGADANSCDHVAYMPHPPPSSDCYTYDYYDDDHVSYLPTTSQFFTDIPGTCSVGQNITRTLNDGVSYTITIKPQMESPLWSIKTTNANQLAVAFHNGGSNIHIARYYDGTKFNSRGAFAATSPSMTQFHNLNTPFFTRNANDTIEIYCTVLSCSSITIDGVKIQITDTKVVQKVDDISYYIFVNTIANPGYHQISLKQQGSYAFFVYGKNKLYSYGYEGGANKPTVVLAPPTTPGPTFYPVTTVSTMSPPTTVTVPTTPTPVPTTTNTPPANPTTATPTTVGTMTPSTGTTTVPVPTTTGSPTTQTTAPVTKPTVPSSTTQTAPPVTTPTSQPPVTTTSLLTTLTTPTVPVTTTVVPSSATVPTTPPTTVTVAATTTSKAPVVTTSPTLAPTSPTKLPTSPPSTVGTSPTAPANLTTPTTAPVNPTSSTTAPTAPVNPTSPTTAPTVPPVTTTTPTTTTSTTTTTTTTTTTTQTTPTTPVVTTPSTITPTTRPVTQPASQPATQPATTPTTTIPTTTQFSSAVSVALPVVLTMFFALF”: the “soluble on expression in E. coli” value was “not soluble”.
In the case of “QLIFDDCVFAFSGPVHEDAYDRSALETVVQDHGGLVLDTGLRPLFNDPFKSKQKKLRHLKPQKRSKSWNQAFVVSDTFSRKVKYLEALAFNIPCVHPQFIKQCLKMNRVVDFSPYLLASGYSHRLDCTLSQRIEPFDTTDSLYDRLLARKGPLFGKKILFIIPEAKSWQKKIENTEQGQKALAHVYHALALGADVEIRPNVAHLECDLILTMDGNIVDETNCPVVDPEWIVECLISQSDIST”, the “soluble on expression in E. coli” value is listed as “soluble”.
Regarding “MGSSHHHHHHSSGLVPRGSVCMTEIATTSGARSVGLLSVGAYRPERVVTNDEICQHIDSSDEWIYTATGIKTRRFAADDESAASMATEACRRALSNAGLSAADIDGVIVTTNTHFLQTPPAAPMVAASLGAKGILGFDLSAGCAGFGYALGAAADMIRGGGAATMLVVGTEKLSPTIDMYDAGNCFIFADGAAAVVVGETPFQGIGPTVAGSDGEQADAIRQDIDWITFAQNPSGPRPFVRLEGPAVFRWAAFKMGDVGRRAMDAAGVRPDQIDVFVPHQANSRINELLVKNLQLRPDAVVANDIEHTGNTSAASIPLAMAELLTTGAAKPGDLALLIGYGAGLSYAAQVVRMPKG”, the “soluble on expression in E. coli” value is “soluble”.
As to “MIKISTRFDAGSVVVKDLTDPSNIRLALRPDNASDFAQWFYFRLQGAAYQNCIMHFENAAEAAYPKGWEGYQACASYDRRNWFRVPTSYENGVLTVNHTPLSNSVYYAYFEPYSEEQHLNLLGDAQGSGLCRIDDLGSTVQGRDINLLTIGNQVESDLKIWITARQHPGETMAEWFIEGLLGRLLDPQDPTARALLDRATFYIVPNMNPDGSALGNLRTNAAGANLNREWENPTVEKSPEVFFVREKMLETGVDLFLDIHGDEGLPFVFVAGTEGVPNYNPRIAALEAQFKNALLNASPDFQDEYGYEKDAPGEANMTLATNWVGNRFNCLAYTLEMPFKDNANLPDDDFGWNGQRSLRLGEAALSAILNVIGDLR”, the “soluble on expression in E. coli” value was “not soluble”.
With “MGSDKIHHHHHHMRICPVPRSAPAGCARIRCLRRCAVFGRSCPKLGLWSSGARTLSHPPCADVNWPNTLCAQHVACALRSHCLTLRAPHALLGRAVRKAGDLMTTAGFQSIDAVQSELSEAGYVCGRALATVVFLSTRLGRPLFLEGEAGVGKTEIAKALAAVTGRPLIRLQCYEGLDAASAVYEWNFAAQMMAIRMAESAGQSDREALQAELFSQDYLIARPLLQAMQPDARGTPILLIDELDRTDAPFEAFLLEALSDFQVTIPELGTIRAPEPPMVILTSNRTREVHDALKRRCLYHWVDYPDFDRELEILTAQVPTASEALSRQVVAFVQSLRTEDLFKKPGVAETIDWANCLLALDVVNLSPETIADTLGALLKYQDDIARLQGSEAKRLLDEARSLLQEH”, the “soluble on expression in E. coli” value is “not soluble”.
Under “MGSDKIHHHHHHSGKLRKSNESGAMRAFRDGEVTIMVNVNLFTEGIDLPGVDVCIMLRPTASLSLYLQFAMRALNPRDGKRAILIDHVGNHIRHGLPNDDRYWTLEGVDKRKSSSKEKEEAPKTCENCFATFYRDRIVDGKCPYCGEPLKIIKDIEKEATNETLTLINQGMEFVSIRGEMIEVTREEALVYKRVKRYGKKYERCESLAELKAFRIIHGYAPGWLWHKQKELNLWRN” stands “not soluble”.
Regarding “MGSDKIHHHHHHMSDNEIVAGIMRDHIINLLKEGKRIDDRGFEDYRPIEIEVGIIEKAEGSALVKLGSTQVLVGIKTTLGEPFPDTPNMGVMTTNVELVPLASPTFEPGPPDERAIELARVTDRGIRESRALNLEKMVIVPGKIVRVVFIDVHVLDHDGNLMDAIGIASIAALLNAKVPKVEYNEETGEVEILEEKEPLPVERIPIPVTFAKIGNILVVDPSLEEELVMDGRLTVTTDETGHISAVQKGEGGAFKLEEVMYAVETAFKKAEEIRKIVLEAIKKSGE”, the “soluble on expression in E. coli” value is “not soluble”.
Take “MAIVNATDQTFAAETKDGLTLVDFWAPWCGPCRMIAPVLEELDREMGDKVKIVKVNVDENQETASKFGVMSIPTLLVFKNGELVDKAIGYQPKEALVQLVGKHVS”: the “soluble on expression in E. coli” value is reported as “soluble”.
“MDIHSHQQALDAYENVLEHLREKHIRITETRKAIISYMIQSTEHPSADKIYRDLQPNFPNMSLATVYNNLKVLVDEGFVSELKISNDLTTYYDFMGHQHVNVVCEICGKIADFMDVDVMDIAKEAHEQTGYKVTRIPVIAYGICPDCQAKDQPDF”: the “soluble on expression in E. coli” value is “not soluble”.
